Consider 16 molecules from article PMC8560851 (Scientific Reports, 2021).

In general, Kd refers to a measure of binding affinity in units of concentration. Read a low Kd as a tighter complex.

The target in assay [1] is T1, VEGF antigen as co-crystallised with the bH1-Fab H3 variants (Homo sapiens, VEGF-A residues 1-110 of …).
T1 construct: VEGF-A, human
T1 chain: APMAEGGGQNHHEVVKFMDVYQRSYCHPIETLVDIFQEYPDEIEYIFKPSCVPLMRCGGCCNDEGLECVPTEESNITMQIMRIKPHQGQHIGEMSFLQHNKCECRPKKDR
As to the kind of experiment: crystal structure; co-crystallization of bH1-Fab H3 variants with the VEGF antigen and X-ray diffraction; methods in Shi et al. (in preparation). The settings on record: both partners purified.

Assay [2] addresses T2, Full-length isoform 165 of human VEGF-A (Homo sapiens, VEGF-A isoform 165, UniProt P15692-4).
T2 construct: VEGF-A isoform 165, human; Immobilised by amine coupling for SPR; Made in HEK cells, so probably the secreted 165-residue form without signal peptide (surmise); source: HEK, recombinant, purified
As to the kind of experiment: SPR; Biacore T200, 25 °C, PBS with 0.05% Tween 20 and 3.4 mM EDTA; VEGF-A amine-coupled to a CM-5 chip; Fab injected in single cycle kinetics with five increasing concentrations; double referenced; fit to a 1:1 Langmuir binding model. Particulars: both partners purified.

T2 sequence (P15692 other isoform, or with tags, fused parts or gaps): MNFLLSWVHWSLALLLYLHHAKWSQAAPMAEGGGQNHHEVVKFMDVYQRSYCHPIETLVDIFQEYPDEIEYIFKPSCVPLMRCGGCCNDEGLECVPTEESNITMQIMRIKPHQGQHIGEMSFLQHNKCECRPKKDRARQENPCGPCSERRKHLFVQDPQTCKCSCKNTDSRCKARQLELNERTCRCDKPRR

B1: bH1 Fab H3 variant 14_0130 (Fab, V domains shown)
VH: EVQLVESGGGLVQPGGSLRLSCAASGFNIKDTYIHWVRQAPGKGLEWVARIYPTNGYTRYADSVKGRFTISADTSKNTAYLQMNSLRAEDTAVYYCAKLGIGYYYYGMDVWGQGTLVTVSS
VL: DIQMTQSPSSLSASVGDRVTITCRASQDIPRSISGYVAWYQQKPGKAPKLLIYWGSYLYSGVPSRFSGSGSGTDFTLTISSLQPEDFATYYCQQHYTTPPTFGQGTKVEIK
notes: also in PDB 7KF1; also called design 14_0130; source: CHO-3E7, co-transfected, purified from supernatant (HisTrap IMAC, SEC Superdex-200)
Take B1: the binding result in assay [1] is “binds”. Binding in assay [2] was characterised by a dissociation constant (Kd) of 2.8 µM.

B2: bH1 Fab H3 variant 15_0485 (Fab, V domains shown)
VH: EVQLVESGGGLVQPGGSLRLSCAASGFNIKDTYIHWVRQAPGKGLEWVARIYPTNGYTRYADSVKGRFTISADTSKNTAYLQMNSLRAEDTAVYYCARHGVRGYYYYYMDVWGQGTLVTVSS
VL: DIQMTQSPSSLSASVGDRVTITCRASQDIPRSISGYVAWYQQKPGKAPKLLIYWGSYLYSGVPSRFSGSGSGTDFTLTISSLQPEDFATYYCQQHYTTPPTFGQGTKVEIK
notes: source: CHO-3E7, co-transfected, purified from supernatant (HisTrap IMAC, SEC Superdex-200)
In the case of B2, in assay [2], binding was characterised by a dissociation constant (Kd) of 0.31 µM.

B3: bH1 Fab H3 variant 16_0325 (Fab, V domains shown)
VH: EVQLVESGGGLVQPGGSLRLSCAASGFNIKDTYIHWVRQAPGKGLEWVARIYPTNGYTRYADSVKGRFTISADTSKNTAYLQMNSLRAEDTAVYYCARGGAVAGTGVYYFDYWGQGTLVTVSS
VL: DIQMTQSPSSLSASVGDRVTITCRASQDIPRSISGYVAWYQQKPGKAPKLLIYWGSYLYSGVPSRFSGSGSGTDFTLTISSLQPEDFATYYCQQHYTTPPTFGQGTKVEIK
notes: also in PDB 7KEZ; also called design 16_0325; source: CHO-3E7, co-transfected, purified from supernatant (HisTrap IMAC, SEC Superdex-200)
B3: the binding result in assay [1] is recorded as “binds”.

B4: bH1 Fab H3 variant 14_0622 (Fab, V domains shown)
VH: EVQLVESGGGLVQPGGSLRLSCAASGFNIKDTYIHWVRQAPGKGLEWVARIYPTNGYTRYADSVKGRFTISADTSKNTAYLQMNSLRAEDTAVYYCARNGGDSYSGYFQHWGQGTLVTVSS
VL: DIQMTQSPSSLSASVGDRVTITCRASQDIPRSISGYVAWYQQKPGKAPKLLIYWGSYLYSGVPSRFSGSGSGTDFTLTISSLQPEDFATYYCQQHYTTPPTFGQGTKVEIK
notes: as for B2
The molecule B4 displayed a Kd in assay [2] of 4.97 µM.

B5: bH1 Fab H3 variant 12_0327 (Fab, V domains shown)
VH: EVQLVESGGGLVQPGGSLRLSCAASGFNIKDTYIHWVRQAPGKGLEWVARIYPTNGYTRYADSVKGRFTISADTSKNTAYLQMNSLRAEDTAVYYCARGRKYSSSFDYWGQGTLVTVSS
VL: DIQMTQSPSSLSASVGDRVTITCRASQDIPRSISGYVAWYQQKPGKAPKLLIYWGSYLYSGVPSRFSGSGSGTDFTLTISSLQPEDFATYYCQQHYTTPPTFGQGTKVEIK
notes: also in PDB 7KF2; also called design 12_0327; source: CHO-3E7, co-transfected, purified from supernatant (HisTrap IMAC, SEC Superdex-200)
B5: in assay [1], the binding result is recorded as “binds”. The same molecule had a Kd in assay [2] of 1.6 µM.

B6: bH1 Fab H3 variant 14_0688 (Fab, V domains shown)
VH: EVQLVESGGGLVQPGGSLRLSCAASGFNIKDTYIHWVRQAPGKGLEWVARIYPTNGYTRYADSVKGRFTISADTSKNTAYLQMNSLRAEDTAVYYCARSGRDAYNYYFDSWGQGTLVTVSS
VL: DIQMTQSPSSLSASVGDRVTITCRASQDIPRSISGYVAWYQQKPGKAPKLLIYWGSYLYSGVPSRFSGSGSGTDFTLTISSLQPEDFATYYCQQHYTTPPTFGQGTKVEIK
notes: as for B2
In assay [2], B6 had an equilibrium dissociation constant (Kd) of 3.6 µM.

B7: bH1 Fab H3 variant 13_0346 (Fab, V domains shown)
VH: EVQLVESGGGLVQPGGSLRLSCAASGFNIKDTYIHWVRQAPGKGLEWVARIYPTNGYTRYADSVKGRFTISADTSKNTAYLQMNSLRAEDTAVYYCARGGSFYYYYMDVWGQGTLVTVSS
VL: DIQMTQSPSSLSASVGDRVTITCRASQDIPRSISGYVAWYQQKPGKAPKLLIYWGSYLYSGVPSRFSGSGSGTDFTLTISSLQPEDFATYYCQQHYTTPPTFGQGTKVEIK
notes: also in PDB 7KF0; also called design 13_0346; source: CHO-3E7, co-transfected, purified from supernatant (HisTrap IMAC, SEC Superdex-200)
Take B7: the binding result in assay [1] is “binds”. In assay [2], binding was characterised by a dissociation constant (Kd) of 0.08 µM.

B8: bH1 Fab H3 variant 14_0472 (Fab, V domains shown)
VH: EVQLVESGGGLVQPGGSLRLSCAASGFNIKDTYIHWVRQAPGKGLEWVARIYPTNGYTRYADSVKGRFTISADTSKNTAYLQMNSLRAEDTAVYYCARGIAVAGAYYFDYWGQGTLVTVSS
VL: DIQMTQSPSSLSASVGDRVTITCRASQDIPRSISGYVAWYQQKPGKAPKLLIYWGSYLYSGVPSRFSGSGSGTDFTLTISSLQPEDFATYYCQQHYTTPPTFGQGTKVEIK
notes: as for B2
The molecule B8 yielded a Kd in assay [2] of 59 µM.

B9: bH1 Fab H3 variant 14_0490 (Fab, V domains shown)
VH: EVQLVESGGGLVQPGGSLRLSCAASGFNIKDTYIHWVRQAPGKGLEWVARIYPTNGYTRYADSVKGRFTISADTSKNTAYLQMNSLRAEDTAVYYCARGNEAGYYYGMDVWGQGTLVTVSS
VL: DIQMTQSPSSLSASVGDRVTITCRASQDIPRSISGYVAWYQQKPGKAPKLLIYWGSYLYSGVPSRFSGSGSGTDFTLTISSLQPEDFATYYCQQHYTTPPTFGQGTKVEIK
notes: as for B2
As to B9, the Kd in assay [2] was found to be 3.59 µM.

B10: bH1 Fab H3 variant 16_0460 (Fab, V domains shown)
VH: EVQLVESGGGLVQPGGSLRLSCAASGFNIKDTYIHWVRQAPGKGLEWVARIYPTNGYTRYADSVKGRFTISADTSKNTAYLQMNSLRAEDTAVYYCARPSGGSRSWLYYFDYWGQGTLVTVSS
VL: DIQMTQSPSSLSASVGDRVTITCRASQDIPRSISGYVAWYQQKPGKAPKLLIYWGSYLYSGVPSRFSGSGSGTDFTLTISSLQPEDFATYYCQQHYTTPPTFGQGTKVEIK
notes: also called design 16_0460; source: CHO-3E7, co-transfected, purified from supernatant (HisTrap IMAC, SEC Superdex-200)
Regarding B10, the equilibrium dissociation constant (Kd) in assay [2] turned out to be 4.5 µM.

B11: bH1 Fab H3 variant 14_0129 (Fab, V domains shown)
VH: EVQLVESGGGLVQPGGSLRLSCAASGFNIKDTYIHWVRQAPGKGLEWVARIYPTNGYTRYADSVKGRFTISADTSKNTAYLQMNSLRAEDTAVYYCAKLGGQGSYYHFDYWGQGTLVTVSS
VL: DIQMTQSPSSLSASVGDRVTITCRASQDIPRSISGYVAWYQQKPGKAPKLLIYWGSYLYSGVPSRFSGSGSGTDFTLTISSLQPEDFATYYCQQHYTTPPTFGQGTKVEIK
notes: as for B2
In assay [2], B11 gave a Kd of 3.48 µM.

B12: parental bH1 Fab (Fab, V domains shown)
VH: not shown
VL: DIQMTQSPSSLSASVGDRVTITCRASQDIPRSISGYVAWYQQKPGKAPKLLIYWGSYLYSGVPSRFSGSGSGTDFTLTISSLQPEDFATYYCQQHYTTPPTFGQGTKVEIK
notes: heavy chain of the bH1 Fab; light chain of the bH1 Fab; also called bH1 antibody; parental antibody; source: CHO-3E7, co-transfected, purified from supernatant (HisTrap IMAC, SEC Superdex-200)
As to B12, the Kd in assay [2] is 0.1 µM.

B13: bH1 Fab H3 variant 14_0822 (Fab, V domains shown)
VH: EVQLVESGGGLVQPGGSLRLSCAASGFNIKDTYIHWVRQAPGKGLEWVARIYPTNGYTRYADSVKGRFTISADTSKNTAYLQMNSLRAEDTAVYYCGRSGPRLGMYYFDFWGQGTLVTVSS
VL: DIQMTQSPSSLSASVGDRVTITCRASQDIPRSISGYVAWYQQKPGKAPKLLIYWGSYLYSGVPSRFSGSGSGTDFTLTISSLQPEDFATYYCQQHYTTPPTFGQGTKVEIK
notes: as for B2
For B13, in assay [2], the equilibrium dissociation constant (Kd) is above 50 µM and the binding result was “no binding (tested: > 50,000 nM)”.

B14: bH1 Fab H3 variant 14_0905 (Fab, V domains shown)
VH: EVQLVESGGGLVQPGGSLRLSCAASGFNIKDTYIHWVRQAPGKGLEWVARIYPTNGYTRYADSVKGRFTISADTSKNTAYLQMNSLRAEDTAVYYCVRGGYLRDYYGMDVWGQGTLVTVSS
VL: DIQMTQSPSSLSASVGDRVTITCRASQDIPRSISGYVAWYQQKPGKAPKLLIYWGSYLYSGVPSRFSGSGSGTDFTLTISSLQPEDFATYYCQQHYTTPPTFGQGTKVEIK
notes: as for B2
With B14, the Kd in assay [2] worked out at 5 µM.

B15: bH1 Fab H3 variant 16_0102 (Fab, V domains shown)
VH: EVQLVESGGGLVQPGGSLRLSCAASGFNIKDTYIHWVRQAPGKGLEWVARIYPTNGYTRYADSVKGRFTISADTSKNTAYLQMNSLRAEDTAVYYCAKGWEGTTVTLTPVDYWGQGTLVTVSS
VL: DIQMTQSPSSLSASVGDRVTITCRASQDIPRSISGYVAWYQQKPGKAPKLLIYWGSYLYSGVPSRFSGSGSGTDFTLTISSLQPEDFATYYCQQHYTTPPTFGQGTKVEIK
notes: as for B2
B15 showed an equilibrium dissociation constant (Kd) in assay [2] of 50 µM.

B16: bH1 Fab H3 variant 14_0480 (Fab, V domains shown)
VH: EVQLVESGGGLVQPGGSLRLSCAASGFNIKDTYIHWVRQAPGKGLEWVARIYPTNGYTRYADSVKGRFTISADTSKNTAYLQMNSLRAEDTAVYYCARGLERSGNYYLDYWGQGTLVTVSS
VL: DIQMTQSPSSLSASVGDRVTITCRASQDIPRSISGYVAWYQQKPGKAPKLLIYWGSYLYSGVPSRFSGSGSGTDFTLTISSLQPEDFATYYCQQHYTTPPTFGQGTKVEIK
notes: as for B2
With B16, binding in assay [2] was characterised by a dissociation constant (Kd) of 2.72 µM.
